According to article PMC11467860:
Like-named read-outs stand apart in the source and are kept apart here.

B1: pre-miR-21 (structured_RNA)
RNA: UAGCUUAUCAGACUGAUGUUGACUGUUGAAUCUCAUGGCAACACCAGUCGAUGGGCUGUC
modifications: 5' phosphate
B2: snord37 (structured_RNA)
RNA: AUUCGUGAUGACUGAUCAUUUCUUCACUUUGACCAGAUGUCUACUGAAGAAAGCCUGCGUCUGAGG

Legend:
Experiment in all cases: EMSA
Dicer S839A = Dicer S839A (Homo sapiens, UniProt Q9UPY3 1-1922, S839A)
Dicer S839F [1] = target: T1, Dicer S839F (Homo sapiens, UniProt Q9UPY3 1-1922, S839F)
Dicer S839F [2] = target: T1, Dicer S839F; remark: listed apart in the source

T1 sequence (Q9UPY3 whole entry S839F): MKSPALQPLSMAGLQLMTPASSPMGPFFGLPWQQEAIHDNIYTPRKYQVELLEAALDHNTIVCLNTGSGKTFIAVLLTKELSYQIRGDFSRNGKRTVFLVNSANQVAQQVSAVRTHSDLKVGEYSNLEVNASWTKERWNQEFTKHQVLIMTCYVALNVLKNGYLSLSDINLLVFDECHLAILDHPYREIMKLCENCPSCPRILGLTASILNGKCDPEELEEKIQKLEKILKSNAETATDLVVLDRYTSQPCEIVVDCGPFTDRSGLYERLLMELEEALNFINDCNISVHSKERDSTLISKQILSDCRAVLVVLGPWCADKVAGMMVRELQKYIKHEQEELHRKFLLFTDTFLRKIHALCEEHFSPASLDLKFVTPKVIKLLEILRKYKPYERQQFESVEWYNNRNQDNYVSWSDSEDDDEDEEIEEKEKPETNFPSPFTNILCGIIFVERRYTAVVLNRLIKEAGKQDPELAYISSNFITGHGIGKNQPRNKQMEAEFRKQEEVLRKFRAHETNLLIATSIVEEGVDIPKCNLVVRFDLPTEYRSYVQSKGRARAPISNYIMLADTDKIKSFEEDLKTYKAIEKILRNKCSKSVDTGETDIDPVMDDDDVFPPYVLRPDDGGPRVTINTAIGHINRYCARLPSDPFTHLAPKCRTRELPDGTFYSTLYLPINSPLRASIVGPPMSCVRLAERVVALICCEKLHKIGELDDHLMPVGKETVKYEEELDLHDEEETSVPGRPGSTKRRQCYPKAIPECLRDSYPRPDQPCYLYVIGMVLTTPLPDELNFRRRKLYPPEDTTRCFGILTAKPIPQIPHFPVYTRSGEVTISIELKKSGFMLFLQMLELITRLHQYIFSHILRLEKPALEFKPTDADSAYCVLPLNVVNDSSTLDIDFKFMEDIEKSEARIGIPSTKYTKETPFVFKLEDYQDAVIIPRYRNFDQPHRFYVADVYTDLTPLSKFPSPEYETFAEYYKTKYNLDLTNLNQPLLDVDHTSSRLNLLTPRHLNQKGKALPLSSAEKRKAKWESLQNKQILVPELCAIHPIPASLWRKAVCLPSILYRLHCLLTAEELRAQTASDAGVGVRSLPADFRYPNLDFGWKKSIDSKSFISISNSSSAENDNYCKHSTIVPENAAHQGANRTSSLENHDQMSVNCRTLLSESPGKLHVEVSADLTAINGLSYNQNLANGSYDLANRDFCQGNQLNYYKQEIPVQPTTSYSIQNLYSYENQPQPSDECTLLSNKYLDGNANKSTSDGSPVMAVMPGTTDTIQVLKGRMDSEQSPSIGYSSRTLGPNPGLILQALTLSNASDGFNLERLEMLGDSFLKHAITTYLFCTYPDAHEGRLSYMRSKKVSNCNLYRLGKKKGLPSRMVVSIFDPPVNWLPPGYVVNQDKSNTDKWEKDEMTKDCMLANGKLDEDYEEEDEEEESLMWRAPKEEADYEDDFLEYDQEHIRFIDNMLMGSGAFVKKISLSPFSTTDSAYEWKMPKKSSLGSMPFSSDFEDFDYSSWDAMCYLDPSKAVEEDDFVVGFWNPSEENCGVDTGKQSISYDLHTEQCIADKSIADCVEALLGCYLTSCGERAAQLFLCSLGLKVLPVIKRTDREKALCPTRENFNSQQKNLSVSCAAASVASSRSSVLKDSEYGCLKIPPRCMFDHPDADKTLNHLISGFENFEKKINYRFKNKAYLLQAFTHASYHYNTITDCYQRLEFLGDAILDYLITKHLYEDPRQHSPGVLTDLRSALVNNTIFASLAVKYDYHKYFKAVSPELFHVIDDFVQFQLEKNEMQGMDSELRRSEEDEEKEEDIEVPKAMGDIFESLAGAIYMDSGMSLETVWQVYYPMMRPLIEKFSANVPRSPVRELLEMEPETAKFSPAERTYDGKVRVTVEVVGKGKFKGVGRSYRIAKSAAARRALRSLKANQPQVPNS
Sequence of Dicer S839A (Q9UPY3 whole entry S839A): as the sequence (Q9UPY3 whole entry S839F) above, with F839A counted along it

Binder | binding result (Dicer S839A) | binding result (Dicer S839F [1]) | binding result (Dicer S839F [2])
B1 | binds | no binding | –
B2 | – | – | binds
